B1: Tyrosine-protein phosphatase non-receptor type 1 (Homo sapiens), P18031 (parent)
chain: MEMEKEFEQIDKSGSWAAIYQDIRHEASDFPCRVAKLPKNKNRNRYRDVSPFDHSRIKLHQEDNDYINASLIKMEEAQRSYILTQGPLPNTCGHFWEMVWEQKSRGVVMLNRVMEKGSLKCAQYWPQKEEKEMIFEDTNLKLTLISEDIKSYYTVRQLELENLTTQETREILHFHYTTWPDFGVPESPASFLNFLFKVRESGSLSPEHGPVVVHCSAGIGRSGTFCLADTCLLLMDKRKDPSSVDIKKVLLEMRKFRMGLIQTADQLRFSYLAVIEGAKFIMGDSSVQDQWKELSHEDLEPPPEHIPPPPRPPKRILEPHNGKCREFFPNHQWVKEETQEDKDCPIKEEKGSPLNAAPYGIESMSQDTEVRSRVVGGSLRGAQAASPAKGEPSLPEKDEDHALSYWKPFLVNMCVATVLTAGAYLCYRFLFNSNT

Variants of: B1
Settings: with k2c8_human KRT8, P05787
k2c8_human KRT8, P05787, sequence (P05787 whole entry): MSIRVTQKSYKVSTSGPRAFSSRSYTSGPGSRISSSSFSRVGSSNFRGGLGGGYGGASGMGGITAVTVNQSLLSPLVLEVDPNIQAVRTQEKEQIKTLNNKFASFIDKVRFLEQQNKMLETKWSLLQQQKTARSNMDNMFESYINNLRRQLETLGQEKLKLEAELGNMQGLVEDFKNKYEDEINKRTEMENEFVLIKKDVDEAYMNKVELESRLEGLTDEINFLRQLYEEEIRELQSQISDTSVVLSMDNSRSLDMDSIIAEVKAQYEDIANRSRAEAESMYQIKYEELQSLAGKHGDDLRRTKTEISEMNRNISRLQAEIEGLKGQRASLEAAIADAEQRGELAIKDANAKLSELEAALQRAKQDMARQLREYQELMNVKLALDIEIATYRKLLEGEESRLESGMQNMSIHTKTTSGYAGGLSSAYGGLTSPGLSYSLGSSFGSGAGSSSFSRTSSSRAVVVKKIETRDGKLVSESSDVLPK

Row | effect of a mutation on the interaction | Variant
1 | increasing interaction strength | D181A
